Laboratory results taken from ChEMBL document CHEMBL3860051, “Phosphorothioate analogs of P1,P3-di(nucleosid-5'-yl) triphosphates: Synthesis, assignment of the absolute configuration at P-atoms and P-stereodependent recognition by Fhit hydrolase” (Bioorg Med Chem, 2016).

What was measured:
[1] = target: Bis(5'-adenosyl)-triphosphatase (Homo sapiens) (UniProt P49789); assay: Activity at human Fhit expressed in Escherichia coli BL 21 assessed as enzyme Km by Michaelis-Menten equation relative to control
Chain of Bis(5'-adenosyl)-triphosphatase (Homo sapiens) (P49789 whole entry, looked up): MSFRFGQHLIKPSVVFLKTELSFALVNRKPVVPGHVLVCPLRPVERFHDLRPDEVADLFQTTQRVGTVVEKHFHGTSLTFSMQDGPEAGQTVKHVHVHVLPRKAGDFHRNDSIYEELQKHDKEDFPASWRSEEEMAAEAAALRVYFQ

[2] = system: Nc1ncnc2c1ncn2[C@@H]1O[C@H](CO[P@@](=O)(S)OP(=O)(O)O[P@](=O)(S)OC[C@H]2O[C@@H](n3cnc4c(N)ncnc43)[C@H](O)[C@@H]2O)[C@@H](O)[C@H]1O; assay: (§1) Activity at human Fhit expressed in Escherichia coli BL21 assessed as ratio of enzyme Kcat to Km by Michaelis-Menten equation
[3] = system: Nc1ncnc2c1ncn2[C@@H]1O[C@H](CO[P@](=O)(S)OP(=O)(O)O[P@](=O)(S)OC[C@H]2O[C@@H](n3cnc4c(N)ncnc43)[C@H](O)[C@@H]2O)[C@@H](O)[C@H]1O; assay: as §1
[4] = system: Nc1ncnc2c1ncn2[C@@H]1O[C@H](CO[P@](=O)(S)OP(=O)(O)O[P@@](=O)(S)OC[C@H]2O[C@@H](n3cnc4c(N)ncnc43)[C@H](O)[C@@H]2O)[C@@H](O)[C@H]1O; assay: as §1
[5] = system: Nc1ncnc2c1ncn2[C@@H]1O[C@H](CO[P@@](=O)(S)OP(=O)(O)O[P@](=O)(S)OC[C@H]2O[C@@H](n3cnc4c(N)ncnc43)[C@H](O)[C@@H]2O)[C@@H](O)[C@H]1O; assay: (§2) Activity at human Fhit expressed in Escherichia coli BL21 assessed as enzyme Km by Michaelis-Menten equation
[6] = system: Nc1ncnc2c1ncn2[C@@H]1O[C@H](CO[P@](=O)(S)OP(=O)(O)O[P@](=O)(S)OC[C@H]2O[C@@H](n3cnc4c(N)ncnc43)[C@H](O)[C@@H]2O)[C@@H](O)[C@H]1O; assay: as §2
[7] = system: Nc1ncnc2c1ncn2[C@@H]1O[C@H](CO[P@](=O)(S)OP(=O)(O)O[P@@](=O)(S)OC[C@H]2O[C@@H](n3cnc4c(N)ncnc43)[C@H](O)[C@@H]2O)[C@@H](O)[C@H]1O; assay: as §2
[8] = system: Nc1ncnc2c1ncn2[C@@H]1O[C@H](CO[P@](=O)(S)OP(=O)(O)OP(=O)(O)OCc2cccc([N+](=O)[O-])c2)[C@@H](O)[C@H]1O; assay: (§3) Activity at human Fhit expressed in Escherichia coli SG100 assessed as ratio of enzyme Kcat to Km by Michaelis-Menten equation
[9] = system: Nc1ncnc2c1ncn2[C@@H]1O[C@H](COP(=O)(O)OP(=O)(O)OP(=O)(O)OC[C@H]2O[C@@H](n3cnc4c(N)ncnc43)[C@H](O)[C@@H]2O)[C@@H](O)[C@H]1O; assay: as §3
[10] = system: Nc1ncnc2c1ncn2[C@@H]1O[C@H](CO[P@@](=O)(S)OP(=O)(O)O[P@](=O)(S)OC[C@H]2O[C@@H](n3cnc4c(N)ncnc43)[C@H](O)[C@@H]2O)[C@@H](O)[C@H]1O; assay: (§4) Activity at human Fhit expressed in Escherichia coli BL21 assessed as enzyme Kcat by Michaelis-Menten equation
[11] = system: Nc1ncnc2c1ncn2[C@@H]1O[C@H](CO[P@](=O)(S)OP(=O)(O)O[P@](=O)(S)OC[C@H]2O[C@@H](n3cnc4c(N)ncnc43)[C@H](O)[C@@H]2O)[C@@H](O)[C@H]1O; assay: as §4
[12] = system: Nc1ncnc2c1ncn2[C@@H]1O[C@H](CO[P@](=O)(S)OP(=O)(O)O[P@@](=O)(S)OC[C@H]2O[C@@H](n3cnc4c(N)ncnc43)[C@H](O)[C@@H]2O)[C@@H](O)[C@H]1O; assay: as §4
[13] = system: Nc1ncnc2c1ncn2[C@@H]1O[C@H](CO[P@](=O)(S)OP(=O)(O)OP(=O)(O)OCc2cccc([N+](=O)[O-])c2)[C@@H](O)[C@H]1O; assay: Activity at human Fhit expressed in Escherichia coli SG100 assessed as enzyme Vmax by Michaelis-Menten equation
[14] = system: Nc1ncnc2c1ncn2[C@@H]1O[C@H](CO[P@](=O)(S)OP(=O)(O)OP(=O)(O)OCc2cccc([N+](=O)[O-])c2)[C@@H](O)[C@H]1O; assay: (§5) Activity at human Fhit expressed in Escherichia coli SG100 assessed as enzyme Km by Michaelis-Menten equation
[15] = system: Nc1ncnc2c1ncn2[C@@H]1O[C@H](COP(=O)(O)OP(=O)(O)OP(=O)(O)OC[C@H]2O[C@@H](n3cnc4c(N)ncnc43)[C@H](O)[C@@H]2O)[C@@H](O)[C@H]1O; assay: as §5
[16] = system: Nc1ncnc2c1ncn2[C@@H]1O[C@H](COP(=O)(O)OP(=O)(O)OP(=O)(O)OC[C@H]2O[C@@H](n3cnc4c(N)ncnc43)[C@H](O)[C@@H]2O)[C@@H](O)[C@H]1O; assay: Activity at human Fhit expressed in Escherichia coli SG100 assessed as enzyme Kcat by Michaelis-Menten equation

Chain of Bis(5'-adenosyl)-triphosphatase (Homo sapiens), P49789 (P49789 whole entry): as the sequence (P49789 whole entry, looked up) above

Nc1ncnc2c1ncn2[C@@H]1O[C@H](CO[P@@](=O)(S)OP(=O)(O)O[P@](=O)(S)OC[C@H]2O[C@@H](n3cnc4c(N)ncnc43)[C@H](O)[C@@H]2O)[C@@H](O)[C@H]1O
fold change (FC) [1]: 2.8

Nc1ncnc2c1ncn2[C@@H]1O[C@H](CO[P@](=O)(S)OP(=O)(O)O[P@@](=O)(S)OC[C@H]2O[C@@H](n3cnc4c(N)ncnc43)[C@H](O)[C@@H]2O)[C@@H](O)[C@H]1O
fold change (FC) [1]: 2.8

Bis(5'-adenosyl)-triphosphatase (Homo sapiens), P49789
kcat/Km [2]: 1.7 ×10² /M/s
kcat/Km [3]: 24 ×10² /M/s
kcat/Km [4]: 1.4 ×10² /M/s
Km [5]: 5.32 µM
Km [6]: 1.25 µM
Km [7]: 3.54 µM
kcat/Km [8]: 0.125 ×10⁶ /s/M
kcat/Km [9]: 3.8 ×10⁷ /M/s
kcat [10]: 8.4 ×10⁻⁴ /s
kcat [11]: 29.9 ×10⁻⁴ /s
kcat [12]: 4.8 ×10⁻⁴ /s
Vmax (10'-6mol/min/ug) [13]: 0.35
Km [14]: 2.8 µM
Km [15]: 1.9 µM
kcat [16]: 73 s⁻¹

Nc1ncnc2c1ncn2[C@@H]1O[C@H](CO[P@](=O)(S)OP(=O)(O)O[P@](=O)(S)OC[C@H]2O[C@@H](n3cnc4c(N)ncnc43)[C@H](O)[C@@H]2O)[C@@H](O)[C@H]1O
fold change (FC) [1]: 2.8
